The assay deals with His-tagged exomer complex (S. cerevisiae) (UniProt Q12114). As to the kind of experiment: pull-down; His-exomer complex immobilized on Ni-NTA beads, incubated with 150 ug/ml purified GST-Chs3 fragments at RT for 30 min; washes with B88G + 1% Tween 20 and B88G; SDS-PAGE and Coomassie staining; bound fragment quantified, normalized to Chs5p in the lane and to the wt pull-down; two independent experiments.

B1: GST-Chs3 (1–170) D19AE21A (domain or fragment)
chain: MTGLNGDDPDDYYLNLNQAEASLLRSRHSVGSGAPHRQGSLVRPERSRLNNPDNPHFYYAQKTQEQMNHLDVLPSSTGVNPNATRRSGSLRSKGSVRSKFSGRETDSYLLQDMNTTDKKASVKISDEGVAEDEFDKDGDVDNFEESSTQPINKSIKPLRKETNDTLSFWQ
As to B1, the level of binding, % of wt was 62 to 63 % of wt.

The record behind these values is article PMC3463608.
